Assay [1] concerns the target CA09 HA. In words: BLI.
Assay [2] deals with PR34 HA. In words: BLI. On the technique in general: BLI is a label-free optical method that tracks binding on a fibre tip over time.

Our source for the Kd and koff values is paper PMC8201785.

In assay [1], MEDI8852 showed a Kd of 0.502 nM and a koff of 0.000147 s⁻¹. In assay [2], this substance had a Kd of 1.36 nM and a koff of 0.00023 s⁻¹.

What is called Kd is the equilibrium constant for the complex coming apart. The koff is a measure of how fast the partners let go of each other. A low value points to slow dissociation.
